Assay results published in patent publication US20070189963A1 (EIDGENOSSISCHE TECHNISCHE HOCHSCHULE ZURICH, published 2007).
Blank lines part the entries; values can stand above or below the molecule they belong to.

Columns and labels:
hen egg lysozyme (hen) [1] = target: hen egg lysozyme (hen) (UniProt P00698); test: 125I-labeled scFv loaded on an antigen column, counting of flow-through and eluate
hen egg lysozyme (hen) [2] = target: hen egg lysozyme (hen) (UniProt P00698); test: affinity chromatography of the Cy5 conjugate on an antigen column
[3] = target: T1, recombinant ED-B domain of fibronectin (UniProt P02751 1266-1356, biotinylated (biotin disulfide N-hydroxysuccinimide ester) in ELISA and ECL competition; Cy5 at the N-terminal extremity in the band-shift assay); test: competition of scFv-(ED-B-biotin) complex with unbiotinylated ED-B, electrochemiluminescent detection (Origen)
T1 construct: domain: ED-B; Recombinant fragment as in Carnemolla et al. 1996; also called biotinylated ED-B; ED-B-biotin
Method: (§1) J. Cancer, 68, 397-405). After loading, the column was washed with 50 ml of equilibration buffer (PBS, 1 mM EDTA, 0.5 M NaCl). Antibody fragments were then eluted with triethylamine 100 mM, immediately neutralised with 1M Hepes, pH 7, and dialysed against PBS, Affinity measurements by BlAcore were performed with purified antibodies as described (Neri et al. (1997). Nature Biotechnol., 15 1271-1275) [FIG. 4]. Band-shift analysis was performed as described (Neri et al. (1996). Nature Biotechnology, 14, 385-390), using recombinant ED-B fluorescently labeled at the N-terminal extremity (Carnemolla et al. (1996). lnt. J. Cancer, 68, 397-405, Neri et al. (1997). Nature Biotechnol., 15 1271-1275) with the infrared fluorophore Cy5 (Amersham) [FIG. 4]. […] We therefore peformed measurements of the kinetic dissociation constant koff by competition experiments (Neri et al. (1996), Trends in Biotechnol., 14, 465-470) [FIG. 4]. […] Streptavidin-coated dynabeads, diluted in Origen Assay Buffer (Deaver, D. R. (1995). Nature, 377, 758-760) were then added (20 μl, 1 mg/ml), and the resulting mixtures analysed with a ORIGEN Analyzer (IGEN Inc. Gaithersburg, Md. USA). […]

[4] = target: T1, recombinant ED-B domain of fibronectin; test: SPR (BIAcore), purified scFv
Method: Meth., 206, 171-182) and affinity purified onto a CNBr-activated sepharose column (Pharmacia, Uppsala, Sweden), which had been coupled with 10 mg of ED-B containing 7B89 recombinant protein (Carnemolla et al. (1996). lnt. J. Cancer, 68, 397-405). After loading, the column was washed with 50 ml of equilibration buffer (PBS, 1 mM EDTA, 0.5 M NaCl). Antibody fragments were then eluted with triethylamine 100 mM, immediately neutralised with 1M Hepes, pH 7, and dialysed against PBS, Affinity measurements by BlAcore were performed with purified antibodies as described (Neri et al. (1997). Nature Biotechnol., 15 1271-1275) [FIG. 4]. Band-shift analysis was performed as described (Neri et al. (1996). Nature Biotechnology, 14, 385-390), using recombinant ED-B fluorescently labeled at the N-terminal extremity (Carnemolla et al. (1996). lnt. J. Cancer, 68, 397-405, Neri et al. (1997). Nature Biotechnol., 15 1271-1275) with the infrared fluorophore Cy5 (Amersham) [FIG. 4]. […] We therefore peformed measurements of the kinetic dissociation constant koff by competition experiments (Neri et al. (1996), Trends in Biotechnol., 14, 465-470) [FIG. 4]. […] Streptavidin-coated dynabeads, diluted in Origen Assay Buffer (Deaver, D. R. (1995). Nature, 377, 758-760) were then added (20 μl, 1 mg/ml), and the resulting mixtures analysed with a ORIGEN Analyzer (IGEN Inc. Gaithersburg, Md. USA). […]

[5] = target: T1, recombinant ED-B domain of fibronectin; test: SPR (BIAcore)
Method: After loading, the column was washed with 50 ml of equilibration buffer (PBS, 1 mM EDTA, 0.5 M NaCl). Antibody fragments were then eluted with triethylamine 100 mM, immediately neutralised with 1M Hepes, pH 7, and dialysed against PBS, Affinity measurements by BlAcore were performed with purified antibodies as described (Neri et al. (1997). Nature Biotechnol., 15 1271-1275) [FIG. 4]. Band-shift analysis was performed as described (Neri et al. (1996). Nature Biotechnology, 14, 385-390), using recombinant ED-B fluorescently labeled at the N-terminal extremity (Carnemolla et al. (1996). lnt. J. Cancer, 68, 397-405, Neri et al. (1997). Nature Biotechnol., 15 1271-1275) with the infrared fluorophore Cy5 (Amersham) [FIG. 4]. […] We therefore peformed measurements of the kinetic dissociation constant koff by competition experiments (Neri et al. (1996), Trends in Biotechnol., 14, 465-470) [FIG. 4]. […] Streptavidin-coated dynabeads, diluted in Origen Assay Buffer (Deaver, D. R. (1995). Nature, 377, 758-760) were then added (20 μl, 1 mg/ml), and the resulting mixtures analysed with a ORIGEN Analyzer (IGEN Inc. Gaithersburg, Md. USA).

[6] = target: T1, recombinant ED-B domain of fibronectin; test: Kd = koff/kon, koff from ECL competition, kon from BIAcore
Method: as §1

T1 sequence (P02751 1266-1356 limits assumed): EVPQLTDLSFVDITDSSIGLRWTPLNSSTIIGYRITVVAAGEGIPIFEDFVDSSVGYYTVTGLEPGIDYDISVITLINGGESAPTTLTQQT
Chain of hen egg lysozyme (hen) (P00698 19-147): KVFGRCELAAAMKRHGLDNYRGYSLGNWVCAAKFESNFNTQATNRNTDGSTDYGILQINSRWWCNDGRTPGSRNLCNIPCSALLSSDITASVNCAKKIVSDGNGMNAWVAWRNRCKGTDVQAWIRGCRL

- immunoreactivity (hen egg lysozyme (hen) [1]): 80%
Molecule: scFv(D1.3)

- immunoreactivity (hen egg lysozyme (hen) [2]): > 78%
Molecule: scFv(HyHEL-10)

- koff [3]: 6e-06 s⁻¹
- kon [4]: 110000 M⁻¹ s⁻¹
- koff [5]: 9.6e-05 s⁻¹
- Kd [6]: 54 pM
B1: scFv L19 (high-affinity anti-ED-B human scFv antibody fragment) (scFv)
scFv: EVQLLESGGGLVQPGGSLRLSCAASGFTFSSFSMSWVRQAPGKGLEWVSSISGSSGTTYYADSVKGRFTISRDNSKNTLYLQMNSLRAEDTAVYYCAKPFPYFDYWGQGTLVTVSSGDGSSGGSGGASTGEIVLTQSPGTLSLSPGERATLSCRASQSVSSSYLAWYQQKPGQAPRLLIYYASSRATGIPDRFSGSGSGTDFTLTISRLEPEDFAVYYCQQTGRIPPTFGQGTKVEIKDDDSDDDYKDDDDKHHHHHH
notes: T0005 (VH, linker, VL) is not labelled L19 itself; also called antibody L19
